# According to the RNAGym collection of RNA variant scans (doi:10.1093/molbev/msab373):
# B1: Azoarcus group I ribozyme (parent)
# chain: GUGCCUUGCGCCGGGAAACCACGCAAGGGAUGGUGUCAAAUUCGGCGAAACCUAAGCGCCCGCCCGGGCGUAUGGCAACGCCGAGCCAAGCUUCGGCGCCUGCGCCGAUGAAGGUGUAGAGACUAGACGGCACCCACCUAAGGCAAACGCUAUGGUGAAGGCAUAGUCCAGGGAGUGGCGAAAGUCACACAAACCGG
# Variants of: B1
# Assay: reverse-splicing fitness (ratio to wild type); higher = more active; in vitro selection; Mg2+ level not given
# Method in brief: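 An in vitro group I ribozyme library with randomized positions was T7-transcribed and gel-purified. In triplicate, 10 pmol RNA in EPPS pH 7.5 was reacted with 50 pmoles of a 30-nt RNA substrate for 1 h at 37 °C across several added MgCl2 levels (1–48 mM), then stopped with EDTA. Products were reverse transcribed from a substrate-complementary primer, PCR-amplified and sequenced (HiSeq 4000). Fitness is a variant's read proportion after selection over that before, normalised to wild type.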
row,Variant,reverse-splicing fitness
1,GUGCCUUGCGCCGGGAAACCACGCAAGGGAUGGUGUCAAAUUCGGCGAAACCUAAGCGCCCGCCCGGGCGUAUGGCAACGCUGAGCCAAGCUUCGGCGCCUGCGCCGAUGGAGGUGUAGUGACUAGACGGCACCCACCUAAGGCCAACGAUAUGGUGAAGGCAUAGUCUAGGGAGCGGCGAAAGUCACACAAACCGG [C82U A111G A120U A145C C150A C169U U176C],0.00235
2,GUGCCUUGCGCCGGGAAACCACGCAAGGGAUGGUGUCAAAUUCGGCGAAACCUAAGCGCCCGCCCGGGCGUAUGGCAACGCUGAGCCAAGCUUCGGCGCCUGCGCCGAUGGAGGUGUAGUGACUAGACGGCACCCACCUAAGGCCAACGAUAUGGUGAAGGCAUAGUCUAGGGAGAGGCGAAAGUCACACAAACCGG [C82U A111G A120U A145C C150A C169U U176A],0.00182
3,GUGCCUUGCGCCGGGAAACCACGCAAGGGAUGGUGUCAAAUUCGGCGAAACCUAAGCGCCCGCCCGGGCGUAUGGCAACGCUGAGCCAAGCUUCGGCGCCUGCGCCGAUGGAGGUGUAGUGACUAGACGGCACCCACCUAAGGCCAACGAUAUGGUGAAGGCAUAGUCUAGGGAGGGGCGAAAGUCACACAAACCGG [C82U A111G A120U A145C C150A C169U U176G],0.00196
4,GUGCCUUGCGCCGGGAAACCACGCAAGGGAUGGUGUCAAAUUCGGCGAAACCUAAGCGCCCGCCCGGGCGUAUGGCAACGCUGAGCCAAGCUUCGGCGCCUGCGCCGAUGGAGGUGUAGUGACUAGACGGCACCCACCUAAGGCCAACGAUAUGGUGAAGGCAUAGUCCAGGGAGAGGCGAAAGUCACACAAACCGG [C82U A111G A120U A145C C150A U176A],0.00269
5,GUGCCUUGCGCCGGGAAACCACGCAAGGGAUGGUGUCAAAUUCGGCGAAACCUAAGCGCCCGCCCGGGCGUAUGGCAACGCUGAGCCAAGCUUCGGCGCCUGCGCCGAUGGAGGUGUAGUGACUAGACGGCACCCACCUAAGGCCAACGAUAUGGUGAAGGCAUAGUCCAGGGAGGGGCGAAAGUCACACAAACCGG [C82U A111G A120U A145C C150A U176G],0.002
6,GUGCCUUGCGCCGGGAAACCACGCAAGGGAUGGUGUCAAAUUCGGCGAAACCUAAGCGCCCGCCCGGGCGUAUGGCAACGCUGAGCCAAGCUUCGGCGCCUGCGCCGAUGGAGGUGUAGUGACUAGACGGCACCCACCUAAGGCCAACGAUAUGGUGAAGGCAUAGUCCAGGGAGCGGCGAAAGUCACACAAACCGG [C82U A111G A120U A145C C150A U176C],0.00275
7,GUGCCUUGCGCCGGGAAACCACGCAAGGGAUGGUGUCAAAUUCGGCGAAACCUAAGCGCCCGCCCGGGCGUAUGGCAACGCUGAGCCAAGCUUCGGCGCCUGCGCCGAUGGAGGUGUAGUGACUAGACGGCACCCACCUAAGGCCAACGAUAUGGUGAAGGCAUAGUCAAGGGAGCGGCGAAAGUCACACAAACCGG [C82U A111G A120U A145C C150A C169A U176C],0.00185
8,GUGCCUUGCGCCGGGAAACCACGCAAGGGAUGGUGUCAAAUUCGGCGAAACCUAAGCGCCCGCCCGGGCGUAUGGCAACGCUGAGCCAAGCUUCGGCGCCUGCGCCGAUGGAGGUGUAGUGACUAGACGGCACCCACCUAAGGCCAACGAUAUGGUGAAGGCAUAGUCAAGGGAGAGGCGAAAGUCACACAAACCGG [C82U A111G A120U A145C C150A C169A U176A],0.00213
9,GUGCCUUGCGCCGGGAAACCACGCAAGGGAUGGUGUCAAAUUCGGCGAAACCUAAGCGCCCGCCCGGGCGUAUGGCAACGCUGAGCCAAGCUUCGGCGCCUGCGCCGAUGGAGGUGUAGUGACUAGACGGCACCCACCUAAGGCCAACGAUAUGGUGAAGGCAUAGUCAAGGGAGGGGCGAAAGUCACACAAACCGG [C82U A111G A120U A145C C150A C169A U176G],0.00186
10,GUGCCUUGCGCCGGGAAACCACGCAAGGGAUGGUGUCAAAUUCGGCGAAACCUAAGCGCCCGCCCGGGCGUAUGGCAACGCUGAGCCAAGCUUCGGCGCCUGCGCCGAUGGAGGUGUAGUGACUAGACGGCACCCACCUAAGGCCAACGAUAUGGUGAAGGCAUAGUCGAGGGAGAGGCGAAAGUCACACAAACCGG [C82U A111G A120U A145C C150A C169G U176A],0.00205
11,GUGCCUUGCGCCGGGAAACCACGCAAGGGAUGGUGUCAAAUUCGGCGAAACCUAAGCGCCCGCCCGGGCGUAUGGCAACGCUGAGCCAAGCUUCGGCGCCUGCGCCGAUGGAGGUGUAGUGACUAGACGGCACCCACCUAAGGCCAACGAUAUGGUGAAGGCAUAGUCGAGGGAGCGGCGAAAGUCACACAAACCGG [C82U A111G A120U A145C C150A C169G U176C],0.00206
12,GUGCCUUGCGCCGGGAAACCACGCAAGGGAUGGUGUCAAAUUCGGCGAAACCUAAGCGCCCGCCCGGGCGUAUGGCAACGCUGAGCCAAGCUUCGGCGCCUGCGCCGAUGGAGGUGUAGUGACUAGACGGCACCCACCUAAGGCCAACGAUAUGGUGAAGGCAUAGUCGAGGGAGGGGCGAAAGUCACACAAACCGG [C82U A111G A120U A145C C150A C169G U176G],0.0017
13,GUGCCUUGCGCCGGGAAACCACGCAAGGGAUGGUGUCAAAUUCGGCGAAACCUAAGCGCCCGCCCGGGCGUAUGGCAACGCUGAGCCAAGCUUCGGCGCCUGCGCCGAUGGAGGUGUAGUGACUAGACGGCACCCACCUAAGGCCAACGGUAUGGUGAAGGCAUAGUCCAGGGAGUGGCGAAAGUCACACAAACCGG [C82U A111G A120U A145C C150G],0.00671
14,GUGCCUUGCGCCGGGAAACCACGCAAGGGAUGGUGUCAAAUUCGGCGAAACCUAAGCGCCCGCCCGGGCGUAUGGCAACGCUGAGCCAAGCUUCGGCGCCUGCGCCGAUGGAGGUGUAGUGACUAGACGGCACCCACCUAAGGCCAACGAUAUGGUGAAGGCAUAGUCUAGGGAGUGGCGAAAGUCACACAAACCGG [C82U A111G A120U A145C C150A C169U],0.00217
15,GUGCCUUGCGCCGGGAAACCACGCAAGGGAUGGUGUCAAAUUCGGCGAAACCUAAGCGCCCGCCCGGGCGUAUGGCAACGCUGAGCCAAGCUUCGGCGCCUGCGCCGAUGGAGGUGUAGUGACUAGACGGCACCCACCUAAGGCCAACGAUAUGGUGAAGGCAUAGUCGAGGGAGUGGCGAAAGUCACACAAACCGG [C82U A111G A120U A145C C150A C169G],0.00197
